Results taken from US5849885.

Molecular target: casein fraction of whole cow milk
Assay: competitive inhibition RIA of bLF in the casein pellet after centrifugation of whole cow milk, no addition (mean + SD, n=10); the same table gives 4 with +0.4M NaCl and 32 after acid precipitation

% of total bLF found in the casein fraction: 21%
Substance: bovine lactoferrin (from UniProt P24627)
